Assay results as given in US9574173 (ACCELERATED BIOSCIENCES, dated 2017).

Key:
[1] = biological target: mechanistic target of rapamycin (mTOR) (human, UniProt P42345 1-2549); assay: immunoprecipitation and Western blot, RA-treated hTS cells (FIG. 28d)
[2] = biological target: T1, E1A binding protein p300 (EP300) (human, UniProt Q09472 2-2414); assay: immunoprecipitation and Western blot, RA-treated hTS cells (FIG. 22c)
T1 construct: Endogenous protein of RA-treated hTS cells; also called ER300
T1 sequence (Q09472 2-2414 limits assumed): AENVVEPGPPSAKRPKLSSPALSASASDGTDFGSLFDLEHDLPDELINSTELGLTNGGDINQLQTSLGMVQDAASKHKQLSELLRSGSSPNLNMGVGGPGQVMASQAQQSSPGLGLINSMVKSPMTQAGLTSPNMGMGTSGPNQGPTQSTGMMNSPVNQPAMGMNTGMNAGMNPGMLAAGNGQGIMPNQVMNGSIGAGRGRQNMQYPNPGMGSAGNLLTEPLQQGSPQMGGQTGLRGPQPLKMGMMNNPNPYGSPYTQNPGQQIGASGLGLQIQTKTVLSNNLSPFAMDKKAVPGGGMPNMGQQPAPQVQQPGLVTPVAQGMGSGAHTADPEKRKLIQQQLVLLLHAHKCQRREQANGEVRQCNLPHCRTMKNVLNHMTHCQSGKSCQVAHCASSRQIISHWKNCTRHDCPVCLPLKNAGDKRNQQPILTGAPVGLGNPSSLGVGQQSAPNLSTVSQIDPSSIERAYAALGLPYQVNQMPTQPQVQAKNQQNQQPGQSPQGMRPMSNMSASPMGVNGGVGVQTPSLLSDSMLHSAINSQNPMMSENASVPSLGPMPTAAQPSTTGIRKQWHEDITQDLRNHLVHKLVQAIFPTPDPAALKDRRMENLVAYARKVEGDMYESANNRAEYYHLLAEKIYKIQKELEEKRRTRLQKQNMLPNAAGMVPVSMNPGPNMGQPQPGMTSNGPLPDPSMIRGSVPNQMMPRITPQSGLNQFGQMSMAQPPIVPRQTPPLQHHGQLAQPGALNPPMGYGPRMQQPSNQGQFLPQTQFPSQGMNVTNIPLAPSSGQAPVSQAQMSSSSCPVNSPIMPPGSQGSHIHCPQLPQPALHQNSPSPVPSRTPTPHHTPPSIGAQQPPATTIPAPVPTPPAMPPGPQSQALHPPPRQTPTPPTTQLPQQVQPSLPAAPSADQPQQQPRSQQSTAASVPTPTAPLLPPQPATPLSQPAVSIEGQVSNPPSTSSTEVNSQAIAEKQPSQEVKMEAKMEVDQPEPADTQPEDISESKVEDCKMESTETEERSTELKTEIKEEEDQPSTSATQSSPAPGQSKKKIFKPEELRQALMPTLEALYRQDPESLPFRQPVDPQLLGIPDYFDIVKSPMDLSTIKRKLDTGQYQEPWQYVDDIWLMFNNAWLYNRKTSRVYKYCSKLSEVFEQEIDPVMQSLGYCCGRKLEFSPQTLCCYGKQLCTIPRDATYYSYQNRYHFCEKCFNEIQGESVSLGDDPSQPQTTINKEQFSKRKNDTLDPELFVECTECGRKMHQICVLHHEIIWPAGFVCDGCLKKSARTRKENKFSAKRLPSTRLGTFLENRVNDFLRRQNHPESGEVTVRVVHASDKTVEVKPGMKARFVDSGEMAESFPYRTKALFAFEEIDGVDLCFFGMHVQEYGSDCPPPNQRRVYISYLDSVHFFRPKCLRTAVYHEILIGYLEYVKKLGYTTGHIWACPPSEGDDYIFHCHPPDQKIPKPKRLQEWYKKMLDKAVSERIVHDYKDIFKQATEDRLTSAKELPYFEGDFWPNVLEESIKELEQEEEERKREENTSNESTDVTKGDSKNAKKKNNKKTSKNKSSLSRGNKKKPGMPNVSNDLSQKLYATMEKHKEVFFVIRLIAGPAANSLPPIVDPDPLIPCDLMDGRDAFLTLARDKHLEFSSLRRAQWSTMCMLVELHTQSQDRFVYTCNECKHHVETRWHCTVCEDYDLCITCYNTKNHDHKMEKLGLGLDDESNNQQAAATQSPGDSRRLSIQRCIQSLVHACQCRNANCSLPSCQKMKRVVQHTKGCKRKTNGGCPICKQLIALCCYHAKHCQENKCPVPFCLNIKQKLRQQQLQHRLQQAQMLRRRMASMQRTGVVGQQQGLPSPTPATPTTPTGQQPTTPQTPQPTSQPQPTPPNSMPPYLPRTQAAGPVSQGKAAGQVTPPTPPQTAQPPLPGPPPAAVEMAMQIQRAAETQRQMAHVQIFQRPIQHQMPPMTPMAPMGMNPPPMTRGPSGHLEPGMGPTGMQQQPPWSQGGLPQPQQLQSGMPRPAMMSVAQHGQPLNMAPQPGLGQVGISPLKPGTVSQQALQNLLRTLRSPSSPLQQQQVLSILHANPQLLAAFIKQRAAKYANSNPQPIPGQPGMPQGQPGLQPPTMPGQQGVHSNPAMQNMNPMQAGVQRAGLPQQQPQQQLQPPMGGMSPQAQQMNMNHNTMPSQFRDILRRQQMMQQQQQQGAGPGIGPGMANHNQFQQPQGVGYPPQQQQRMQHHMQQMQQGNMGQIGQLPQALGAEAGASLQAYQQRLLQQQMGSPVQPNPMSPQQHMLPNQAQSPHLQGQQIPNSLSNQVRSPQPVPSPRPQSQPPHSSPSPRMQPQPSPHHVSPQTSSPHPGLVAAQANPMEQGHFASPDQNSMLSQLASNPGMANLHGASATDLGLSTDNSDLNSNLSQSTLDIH

Binder | binding result [1] | binding result [2]
rac-gamma serine/threonine-protein kinase (AKt3) (enzyme, Endogenous protein of RA-treated hTS cells) SDVTIVKEGWVQKRGEYIKNWRPRYFLLKTDGSFIGYKEKPQDVDLPYPLNNFSVAKCQLMKTERPKPNTFIIRCLQWTTVIERTFHVDTPEEREEWTEAIQAVADRLQRQEEERMNCSPTSQIDNIGEEEMDASTTHHKRKTMNDFDYLKLLGKGTFGKVILVREKASGKYYAMKILKKEVIIAKDEVAHTLTESRVLKNTRHPFLTSLKYSFQTKDRLCFVMEYVNGGELFFHLSRERVFSEDRTRFYGAEIVSALDYLHSGKIVYRDLKLENLMLDKDGHIKITDFGLCKEGITDAATMKTFCGTPEYLAPEVLEDNDYGRAVDWWGLGVVMYEMMCGRLPFYNQDHEKLFELILMEDIKFPRTLSSDAKSLLSGLLIKDPNKRLGGGPDDAKEIMRHSFFSGVNWQDVYDKKLVPPFKPQVTSETDTRYFDEEFTAQTITITPPEKYDEDGMDCMDNERRPHFPQFSYSASGRE | binds | –
myocyte enhancer factor 2A (MEF2A) (other, human, UniProt Q02078 1-507, looked up, Endogenous protein of RA-treated hTS cells) MGRKKIQITRIMDERNRQVTFTKRKFGLMKKAYELSVLCDCEIALIIFNSSNKLFQYASTDMDKVLLKYTEYNEPHESRTNSDIVEALNKKEHRGCDSPDPDTSYVLTPHTEEKYKKINEEFDNMMRNHKIAPGLPPQNFSMSVTVPVTSPNALSYTNPGSSLVSPSLAASSTLTDSSMLSPPQTTLHRNVSPGAPQRPPSTGNAGGMLSTTDLTVPNGAGSSPVGNGFVNSRASPNLIGATGANSLGKVMPTKSPPPPGGGNLGMNSRKPDLRVVIPPSSKGMMPPLSEEEELELNTQRISSSQATQPLATPVVSVTTPSLPPQGLVYSAMPTAYNTDYSLTSADLSALQGFNSPGMLSLGQVSAWQQHHLGQAALSSLVAGGQLSQGSNLSINTNQNISIKSEPISPPRDRMTPSGFQQQQQQQQQQQPPPPPQPQPQPPQPQPRQEMGRSPVDSLSSSSSSYDGSDREDPRGDFHSPIVLGRPPNTEDRESPSVKRMRMDAWVT | – | binds
